Where two headings read alike, the source gives them in different places.
Experiments:
Experiment in all cases: MHC class I stabilization on T2-A24 cells, flow cytometry, 100 ug/mL peptide
HLA-A*02:01 [1] = biological target: T1, HLA-A*02:01 (human)
T1 construct: whole, on cells; MHC class I molecule, empty until peptide is added; detected with FITC anti-HLA-A02 antibody BB7.2

HLA-A*02:01 [2] = biological target: T1, HLA-A*02:01; remark: listed apart in the source
HLA-A*24:02 [3] = biological target: T2, HLA-A*24:02 (human)
T2 construct: whole, on cells; MHC class I molecule, empty until peptide is added; detected with FITC anti-HLA-A24 antibody 17A10

HLA-A*24:02 [4] = biological target: T2, HLA-A*24:02; remark: listed apart in the source

| Binder | MFI (solvent ratio) (HLA-A*02:01 [1]) | MFI (solvent ratio) (HLA-A*02:01 [2]) | MFI (solvent ratio) (HLA-A*24:02 [3]) | MFI (solvent ratio) (HLA-A*24:02 [4]) |
| --- | --- | --- | --- | --- |
| TLSSGTYWPV [FAM83B-derived peptide F86_10] | ≥ 1.5 ratio to solvent | 3 ratio to solvent | 1 ratio to solvent | – |
| NLDLGWPYV [FAM83B-derived peptide F103_9] | ≥ 1.5 ratio to solvent | 2.6 ratio to solvent | 1.1 ratio to solvent | – |
| GLLGGTHIDLL [FAM83B-derived peptide F114_11] | ≥ 1.5 ratio to solvent | 2.9 ratio to solvent | 1.1 ratio to solvent | – |
| HLLTIKETI [FAM83B-derived peptide F131_9] | ≥ 1.5 ratio to solvent | 1.5 ratio to solvent | 2.4 ratio to solvent | ≥ 1.5 ratio to solvent |
| ALVMDIFTDV [FAM83B-derived peptide F151_10] | ≥ 1.5 ratio to solvent | 3.4 ratio to solvent | 1 ratio to solvent | – |
| HYKEWYRVAI [FAM83B-derived peptide F23_10] | ≥ 1.5 ratio to solvent | 2 ratio to solvent | 3 ratio to solvent | ≥ 1.5 ratio to solvent |
| LLDESNFNHFL [FAM83B-derived peptide F179_11] | ≥ 1.5 ratio to solvent | 1.6 ratio to solvent | 1.1 ratio to solvent | – |
| FLQQRMPTL [FAM83B-derived peptide F476_9] | ≥ 1.5 ratio to solvent | 2 ratio to solvent | 2.6 ratio to solvent | ≥ 1.5 ratio to solvent |
| PLPESIPKL [FAM83B-derived peptide F594_9] | – | – | 3.8 ratio to solvent | ≥ 1.5 ratio to solvent |
| RLCSSSDTLV [FAM83B-derived peptide F799_10] | ≥ 1.5 ratio to solvent | 2.1 ratio to solvent | 1.2 ratio to solvent | – |
| SMVQIITGQLV [FAM83B-derived peptide F256_11] | ≥ 1.5 ratio to solvent | 3.2 ratio to solvent | 1.1 ratio to solvent | – |
| NYILKNVQKV [FAM83B-derived peptide F62_10] | ≥ 1.5 ratio to solvent | 2.9 ratio to solvent | 1.6 ratio to solvent | ≥ 1.5 ratio to solvent |
| KVIALVMDI [FAM83B-derived peptide F148_9] | ≥ 1.5 ratio to solvent | 2.4 ratio to solvent | 1.6 ratio to solvent | ≥ 1.5 ratio to solvent |
| VMYGSYSYMWSF [FAM83B-derived peptide F239_12] | ≥ 1.5 ratio to solvent | 1.6 ratio to solvent | 4 ratio to solvent | ≥ 1.5 ratio to solvent |
| TYQHSVSSLASV [FAM83B-derived peptide F305_12] | ≥ 1.5 ratio to solvent | 2 ratio to solvent | 3.1 ratio to solvent | ≥ 1.5 ratio to solvent |
| HGLEAYQEFLV [FAM83B-derived peptide F38_11] | ≥ 1.5 ratio to solvent | 2.5 ratio to solvent | 3.1 ratio to solvent | ≥ 1.5 ratio to solvent |
| WYRVAIDILI [FAM83B-derived peptide F27_10] | – | 1.2 ratio to solvent | 3.2 ratio to solvent | ≥ 1.5 ratio to solvent |
| KPLPESIPKL [FAM83B-derived peptide F593_10] | ≥ 1.5 ratio to solvent | 1.9 ratio to solvent | 3.5 ratio to solvent | ≥ 1.5 ratio to solvent |
| FLAEEEINYI [FAM83B-derived peptide F55_10] | ≥ 1.5 ratio to solvent | 3.5 ratio to solvent | 1.2 ratio to solvent | – |
| FLLVDCQKVM [FAM83B-derived peptide F231_10] | ≥ 1.5 ratio to solvent | 2 ratio to solvent | 1 ratio to solvent | – |
| MVQIITGQLV [FAM83B-derived peptide F257_10] | ≥ 1.5 ratio to solvent | 1.9 ratio to solvent | 1.1 ratio to solvent | – |

| Binder | MFI (solvent ratio) (HLA-A*02:01 [1]) | MFI (solvent ratio) (HLA-A*02:01 [2]) | MFI (solvent ratio) (HLA-A*24:02 [3]) | MFI (solvent ratio) (HLA-A*24:02 [4]) |
| --- | --- | --- | --- | --- |
| NYIEPHYKEW [FAM83B-derived peptide F18_10] | – | 1 ratio to solvent | 3.2 ratio to solvent | ≥ 1.5 ratio to solvent |
| LVQERVSDFL [FAM83B-derived peptide F47_10] | – | 1.1 ratio to solvent | 1.5 ratio to solvent | ≥ 1.5 ratio to solvent |
| KVIALVMDIF [FAM83B-derived peptide F148_10] | – | 1.1 ratio to solvent | 2.6 ratio to solvent | ≥ 1.5 ratio to solvent |
| VIALVMDIFT [FAM83B-derived peptide F149_10] | – | 1.3 ratio to solvent | 2.1 ratio to solvent | ≥ 1.5 ratio to solvent |
| VMDIFTDVDIF [FAM83B-derived peptide F153_11] | – | 0.9 ratio to solvent | 2 ratio to solvent | ≥ 1.5 ratio to solvent |
| KVMYGSYSYMWSF [FAM83B-derived peptide F238_13] | – | 1.2 ratio to solvent | 5.1 ratio to solvent | ≥ 1.5 ratio to solvent |
| GWPYVMPGLL [FAM83B-derived peptide F107_10] | – | 1 ratio to solvent | 2.7 ratio to solvent | ≥ 1.5 ratio to solvent |
| VMYGSYSYMW [FAM83B-derived peptide F239_10] | – | 1.1 ratio to solvent | 2.2 ratio to solvent | ≥ 1.5 ratio to solvent |
| SYMWSFEKAHL [FAM83B-derived peptide F245_11] | ≥ 1.5 ratio to solvent | 1.5 ratio to solvent | 2.9 ratio to solvent | ≥ 1.5 ratio to solvent |
| RFLQQRMPTL [FAM83B-derived peptide F475_10] | ≥ 1.5 ratio to solvent | 1.9 ratio to solvent | 3 ratio to solvent | ≥ 1.5 ratio to solvent |
| FLAEEEINYIL [FAM83B-derived peptide F55_11] | ≥ 1.5 ratio to solvent | 3.6 ratio to solvent | 1 ratio to solvent | – |
| YILKNVQKV [FAM83B-derived peptide F63_9] | ≥ 1.5 ratio to solvent | 3.3 ratio to solvent | 1 ratio to solvent | – |
| SYQPNENKF (also called FAM83B peptide) [FAM83B-derived peptide SF_9] | – | 1 ratio to solvent | 2.3 ratio to solvent | ≥ 1.5 ratio to solvent |
| VYILLDESNF [FAM83B-derived peptide F176_10] | – | 1.2 ratio to solvent | 2.7 ratio to solvent | ≥ 1.5 ratio to solvent |
| LYARSCVPSSF [FAM83B-derived peptide F276_11] | – | 1.2 ratio to solvent | 3.4 ratio to solvent | ≥ 1.5 ratio to solvent |
| TYQHSVSSL [FAM83B-derived peptide F305_9] | – | 1.1 ratio to solvent | 2.4 ratio to solvent | ≥ 1.5 ratio to solvent |
| SYFKNRGIYTL [FAM83B-derived peptide F335_11] | – | 1 ratio to solvent | 2.3 ratio to solvent | ≥ 1.5 ratio to solvent |
| SFNGTDNHIRF [FAM83B-derived peptide F466_11] | – | 1 ratio to solvent | 1.7 ratio to solvent | ≥ 1.5 ratio to solvent |
| PFCKIESSI [FAM83B-derived peptide F939_9] | – | 0.9 ratio to solvent | 2.7 ratio to solvent | ≥ 1.5 ratio to solvent |
| SYGRSSPLL [FAM83B-derived peptide F971_9] | – | 1.1 ratio to solvent | 1.8 ratio to solvent | ≥ 1.5 ratio to solvent |
| FLVQERVSDFL [FAM83B-derived peptide F46_11] | – | – | 1.6 ratio to solvent | ≥ 1.5 ratio to solvent |
